Measurements as given in paper doi:10.1101/2020.05.04.075580.
Read-outs that look alike come from different tables or passages of the source.

Columns and labels:
[1] = molecular target: T1, importin alpha2_21-50 peptide (mouse, UniProt P52293); assay: NMR
[2] = molecular target: T1, importin alpha2_21-50 peptide; assay: NMR; remark: listed apart in the source

B1: SOX-POU 15 bp (dsDNA)
DNA 1: GCAGATGCATAACCG
DNA 2: CGGTTATGCATCTGC
Work on B1 yielded a Kd [1] of 0.3 µM and a Kd [2] of 600 µM.
